# Test system: Escherichia coli TOP10
# Assay: shrunken log2 fold change of peptide-encoding DNA abundance (4.5 h post-induction vs induction); higher = less antimicrobial activity (less host growth inhibition)
# Details: time post-induction: 4.5 h; library: site-saturation at positions 5, 18, 19, 20
# 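Note: peptides expressed intracellularly from a pBAD plasmid library in pooled LB shake-flask culture, induced with 0.3% L-arabinose, DNA abundance read by NGS, three biological replicates, DESeq2 with apeglm shrinkage.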
row,Sequence,shrunken log2 fold change
1,RRIRVRPPRLPRPRPRPYTWPRP,-0.364
2,RRIRTRPPRLPRPRPRPCMAPRP,-0.172
3,RRIRPRPPRLPRPRPRPNVSPRP,-0.0557
4,RRIRYRPPRLPRPRPRPKDMPRP,0.0203
5,RRIRLRPPRLPRPRPRPEGQPRP,-0.118
6,RRIRSRPPRLPRPRPRPHEIPRP,-0.346
7,RRIRSRPPRLPRPRPRPLSAPRP,0.234
8,RRIRGRPPRLPRPRPRPYYKPRP,-0.607
9,RRIRLRPPRLPRPRPRPMGAPRP,0.316
10,RRIRLRPPRLPRPRPRPTFQPRP,-0.098
11,RRIRERPPRLPRPRPRPYYHPRP,-1.58
12,RRIRTRPPRLPRPRPRPSITPRP,-0.484
13,RRIRERPPRLPRPRPRPIYAPRP,-0.086
14,RRIRDRPPRLPRPRPRPKAQPRP,-0.1
15,RRIRVRPPRLPRPRPRPYLNPRP,-0.16
16,RRIRTRPPRLPRPRPRPYPPPRP,-0.203
17,RRIRPRPPRLPRPRPRPASNPRP,-0.231
18,RRIRVRPPRLPRPRPRPVILPRP,-0.248
19,RRIRNRPPRLPRPRPRPIVIPRP,-0.29
20,RRIRMRPPRLPRPRPRPACSPRP,0.551
21,RRIRFRPPRLPRPRPRPVVIPRP,0.0715
22,RRIRRRPPRLPRPRPRPPCSPRP,0.112

row,Sequence,shrunken log2 fold change
1,RRIRQRPPRLPRPRPRPSQPPRP,-0.267
2,RRIRRRPPRLPRPRPRPKDEPRP,0.189
3,RRIRCRPPRLPRPRPRPTICPRP,-0.142
4,RRIRWRPPRLPRPRPRPFYDPRP,-0.21
5,RRIRIRPPRLPRPRPRPNNAPRP,-0.444
6,RRIRGRPPRLPRPRPRPWAGPRP,0.188
7,RRIRARPPRLPRPRPRPSYAPRP,-0.165
8,RRIRKRPPRLPRPRPRPREEPRP,1.2
9,RRIRARPPRLPRPRPRPNCPPRP,-0.0021
10,RRIRVRPPRLPRPRPRPWFVPRP,-0.475
11,RRIRIRPPRLPRPRPRPPASPRP,0.276
12,RRIRMRPPRLPRPRPRPTQCPRP,0.00706
13,RRIRARPPRLPRPRPRPMHCPRP,0.0899
14,RRIRWRPPRLPRPRPRPEPQPRP,0.818
15,RRIRMRPPRLPRPRPRPPPTPRP,1.97
16,RRIRTRPPRLPRPRPRPDVSPRP,-0.223
17,RRIRKRPPRLPRPRPRPLFMPRP,-0.0207
18,RRIRGRPPRLPRPRPRPRAMPRP,0.787
19,RRIRMRPPRLPRPRPRPANAPRP,0.442
20,RRIRCRPPRLPRPRPRPLIDPRP,-0.301
21,RRIRPRPPRLPRPRPRPSKLPRP,-0.224
22,RRIRARPPRLPRPRPRPRKKPRP,0.404

row,Sequence,shrunken log2 fold change
1,RRIRSRPPRLPRPRPRPFTSPRP,0.0532
2,RRIRNRPPRLPRPRPRPDWCPRP,0.0226
3,RRIRARPPRLPRPRPRPMKHPRP,-0.00244
4,RRIRMRPPRLPRPRPRPHQLPRP,-0.0373
5,RRIRQRPPRLPRPRPRPQFKPRP,-0.0321
6,RRIRTRPPRLPRPRPRPTKHPRP,-0.258
7,RRIRPRPPRLPRPRPRPINDPRP,-0.178
8,RRIRCRPPRLPRPRPRPYMQPRP,-0.918
9,RRIRNRPPRLPRPRPRPLISPRP,3.16
10,RRIRRRPPRLPRPRPRPYETPRP,0.119
11,RRIRHRPPRLPRPRPRPRQWPRP,0.408
12,RRIRRRPPRLPRPRPRPTHPPRP,0.543
13,RRIRCRPPRLPRPRPRPTDNPRP,-0.58
14,RRIRSRPPRLPRPRPRPVKKPRP,0.0525
15,RRIRPRPPRLPRPRPRPMYGPRP,-0.182
16,RRIRMRPPRLPRPRPRPWPAPRP,0.807
17,RRIRCRPPRLPRPRPRPEWMPRP,-0.0041
18,RRIRERPPRLPRPRPRPGWAPRP,0.487
19,RRIRSRPPRLPRPRPRPEILPRP,-0.0652
20,RRIRPRPPRLPRPRPRPVDSPRP,-0.177
21,RRIRLRPPRLPRPRPRPSGIPRP,-0.267
22,RRIRQRPPRLPRPRPRPFMYPRP,0.000979

row,Sequence,shrunken log2 fold change
1,RRIRTRPPRLPRPRPRPCSAPRP,-0.413
2,RRIRWRPPRLPRPRPRPFQWPRP,0.236
3,RRIRIRPPRLPRPRPRPKCPPRP,-0.263
4,RRIRHRPPRLPRPRPRPKGKPRP,-0.0894
5,RRIRLRPPRLPRPRPRPARNPRP,0.483
6,RRIRARPPRLPRPRPRPEHDPRP,-0.0905
7,RRIRARPPRLPRPRPRPRKSPRP,0.778
8,RRIRSRPPRLPRPRPRPVWEPRP,0.118
9,RRIRVRPPRLPRPRPRPREGPRP,0.307
10,RRIRTRPPRLPRPRPRPWYYPRP,-0.117
11,RRIRIRPPRLPRPRPRPWIHPRP,2.37
12,RRIRNRPPRLPRPRPRPLCSPRP,-0.0294
13,RRIRPRPPRLPRPRPRPGPTPRP,0.0907
14,RRIRYRPPRLPRPRPRPCMYPRP,-0.101
15,RRIRNRPPRLPRPRPRPHACPRP,0.0169
16,RRIRARPPRLPRPRPRPWFYPRP,0.0676
17,RRIRERPPRLPRPRPRPNMRPRP,0.131
18,RRIRRRPPRLPRPRPRPWKRPRP,-0.0441
19,RRIRARPPRLPRPRPRPDYIPRP,0.00625
20,RRIRARPPRLPRPRPRPGPDPRP,0.455
21,RRIRWRPPRLPRPRPRPCYMPRP,-0.282
22,RRIRRRPPRLPRPRPRPFELPRP,-0.249

row,Sequence,shrunken log2 fold change
1,RRIRPRPPRLPRPRPRPKGFPRP,0.0275
2,RRIRFRPPRLPRPRPRPYWIPRP,-1.07
3,RRIRYRPPRLPRPRPRPLHNPRP,-0.507
4,RRIRLRPPRLPRPRPRPFNAPRP,-0.154
5,RRIRIRPPRLPRPRPRPLHAPRP,0.00821
6,RRIRKRPPRLPRPRPRPMPLPRP,-0.00591
7,RRIRSRPPRLPRPRPRPTHVPRP,-0.117
8,RRIRSRPPRLPRPRPRPTKMPRP,0.00603
9,RRIRSRPPRLPRPRPRPRNRPRP,-0.198
10,RRIRPRPPRLPRPRPRPHTMPRP,-0.143
11,RRIRMRPPRLPRPRPRPPYNPRP,-0.575
12,RRIRKRPPRLPRPRPRPKSCPRP,0.00967
13,RRIRIRPPRLPRPRPRPWLQPRP,0.0391
14,RRIRIRPPRLPRPRPRPVSPPRP,0.188
15,RRIRSRPPRLPRPRPRPFMTPRP,-0.328
16,RRIRMRPPRLPRPRPRPTKDPRP,0.277
17,RRIRIRPPRLPRPRPRPQKRPRP,-0.143
18,RRIRVRPPRLPRPRPRPSEHPRP,-0.779
19,RRIRQRPPRLPRPRPRPWFKPRP,-0.183
20,RRIRTRPPRLPRPRPRPDSSPRP,-0.00751
21,RRIRDRPPRLPRPRPRPVQKPRP,-0.0131

# Reference: the supplement of paper PMC9112550, “Optimization of the antimicrobial peptide Bac7 by deep mutational scanning” (BMC Biology, 2022)
